Reference: patent US20240353401, “Compositions and methods for detecting SARS-CoV-2 spike protein” (UNICORNFISH PTY LTD AS TRUSTEE FOR RCX UNIT TRUST, published 2024)

Key:
[1] = target: SARS-CoV-2 spike protein (SARS-CoV-2, UniProt P0DTC2 P0DTC2:14-1213); experiment: cell-based or functional assay
[2] = target: HCoV-229E spike protein (Human coronavirus 229E, UniProt P15423 P15423:16-1115)
[3] = target: HCoV-NL63 spike protein (Human coronavirus NL63, UniProt Q6Q1S2 Q6Q1S2:19-1296)
HCoV-NL63 spike protein, sequence (Q6Q1S2 19-1296, one chain of several): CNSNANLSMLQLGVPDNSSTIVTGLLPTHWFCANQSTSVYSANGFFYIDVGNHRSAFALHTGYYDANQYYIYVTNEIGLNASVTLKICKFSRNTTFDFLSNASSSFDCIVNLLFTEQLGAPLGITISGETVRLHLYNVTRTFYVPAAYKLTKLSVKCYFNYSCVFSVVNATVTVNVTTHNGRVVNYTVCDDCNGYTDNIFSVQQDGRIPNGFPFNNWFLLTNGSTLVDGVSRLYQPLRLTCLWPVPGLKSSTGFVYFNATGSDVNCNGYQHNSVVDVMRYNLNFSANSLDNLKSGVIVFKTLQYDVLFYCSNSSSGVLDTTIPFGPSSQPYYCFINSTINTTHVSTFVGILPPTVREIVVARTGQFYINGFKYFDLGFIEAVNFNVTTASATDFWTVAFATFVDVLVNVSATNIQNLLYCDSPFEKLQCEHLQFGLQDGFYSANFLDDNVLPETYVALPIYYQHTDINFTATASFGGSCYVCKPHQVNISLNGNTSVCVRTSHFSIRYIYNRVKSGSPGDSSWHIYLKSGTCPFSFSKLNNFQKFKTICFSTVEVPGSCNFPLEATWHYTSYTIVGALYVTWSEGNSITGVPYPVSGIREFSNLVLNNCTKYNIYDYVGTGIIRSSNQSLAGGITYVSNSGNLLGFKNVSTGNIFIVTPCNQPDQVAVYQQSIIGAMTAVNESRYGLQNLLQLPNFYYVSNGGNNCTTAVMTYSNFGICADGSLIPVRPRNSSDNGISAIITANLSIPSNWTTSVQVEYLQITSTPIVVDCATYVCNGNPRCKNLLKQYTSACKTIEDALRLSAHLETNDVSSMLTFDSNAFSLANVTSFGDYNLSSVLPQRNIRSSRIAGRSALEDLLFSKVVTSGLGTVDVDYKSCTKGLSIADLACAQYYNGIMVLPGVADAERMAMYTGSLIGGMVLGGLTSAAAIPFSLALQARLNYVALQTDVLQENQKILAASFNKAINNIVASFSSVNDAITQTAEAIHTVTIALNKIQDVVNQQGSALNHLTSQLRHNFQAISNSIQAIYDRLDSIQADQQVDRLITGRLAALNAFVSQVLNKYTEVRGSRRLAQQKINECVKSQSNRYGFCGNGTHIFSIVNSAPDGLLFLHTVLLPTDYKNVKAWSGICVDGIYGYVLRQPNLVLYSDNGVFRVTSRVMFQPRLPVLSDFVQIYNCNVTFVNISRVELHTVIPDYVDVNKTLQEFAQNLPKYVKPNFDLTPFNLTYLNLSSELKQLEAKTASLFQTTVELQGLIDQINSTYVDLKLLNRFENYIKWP

HCoV-229E spike protein, sequence (P15423 16-1115, one chain of several): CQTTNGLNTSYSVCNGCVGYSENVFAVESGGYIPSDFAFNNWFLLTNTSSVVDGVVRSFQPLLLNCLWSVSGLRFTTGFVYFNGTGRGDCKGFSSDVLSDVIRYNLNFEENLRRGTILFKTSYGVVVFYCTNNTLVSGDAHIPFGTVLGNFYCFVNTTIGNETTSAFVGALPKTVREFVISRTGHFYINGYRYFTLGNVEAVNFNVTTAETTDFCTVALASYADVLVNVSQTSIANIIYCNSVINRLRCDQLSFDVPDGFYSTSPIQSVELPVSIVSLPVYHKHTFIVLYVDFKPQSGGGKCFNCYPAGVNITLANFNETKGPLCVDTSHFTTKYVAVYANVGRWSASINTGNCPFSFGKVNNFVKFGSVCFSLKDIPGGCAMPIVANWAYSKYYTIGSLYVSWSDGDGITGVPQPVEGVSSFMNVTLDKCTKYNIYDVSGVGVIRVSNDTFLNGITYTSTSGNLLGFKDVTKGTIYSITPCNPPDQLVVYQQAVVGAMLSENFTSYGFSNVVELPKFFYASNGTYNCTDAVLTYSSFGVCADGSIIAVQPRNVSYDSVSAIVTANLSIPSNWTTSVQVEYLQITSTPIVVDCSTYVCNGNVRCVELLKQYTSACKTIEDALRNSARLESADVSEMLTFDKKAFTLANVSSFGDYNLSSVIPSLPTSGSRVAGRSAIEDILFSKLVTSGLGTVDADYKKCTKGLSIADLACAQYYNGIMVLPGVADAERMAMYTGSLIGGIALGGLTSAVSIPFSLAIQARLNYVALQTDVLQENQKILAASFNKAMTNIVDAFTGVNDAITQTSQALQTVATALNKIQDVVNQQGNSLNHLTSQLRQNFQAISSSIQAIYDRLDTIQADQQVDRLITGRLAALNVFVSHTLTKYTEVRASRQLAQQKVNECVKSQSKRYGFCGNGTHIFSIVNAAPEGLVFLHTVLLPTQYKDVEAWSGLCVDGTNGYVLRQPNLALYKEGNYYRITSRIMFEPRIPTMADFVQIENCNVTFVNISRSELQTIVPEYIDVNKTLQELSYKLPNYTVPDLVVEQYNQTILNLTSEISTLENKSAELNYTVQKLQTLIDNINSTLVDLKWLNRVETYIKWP

Binder | activity [1] [nM] | binding result [2] | binding result [3]
DNA aptamer 5 (ssDNA) DNA: ATCCAGAGTGACGCAGCAGGACTGCTTAGGATTGCGAAGCTGAGGAGCTCCCCCGCCTTGGACACGGTGGCTTAGT | 9.7 | – | –
DNA aptamer 3 (ssDNA) DNA: ATCCAGAGTGACGCAGCACTGCGTAGGCGCGGCCAATGTGTAGGATTGCTCAGGTCTGCTGGACACGGTGGCTTAGT | 10 | – | –
DNA aptamer 2 (ssDNA) DNA: ATCCAGAGTGACGCAGCATCGAGTGGTGGGCTGGTCGGGTTTGGATTCCCTTAGATGCTGGACACGGTGGCTTAGT | 8 | – | –
DNA aptamer 7 (ssDNA) DNA: CAGCACCGACCTTGTGCTTTGGGAGTGCTGGTCCAAGGGCGTTAATGGACA | – | no binding | no binding
DNA aptamer 4 (ssDNA) DNA: ATCCAGAGTGACGCAGCATTTCATCGGGTCCAAAAGGGGCTGCTCGGGATTGCGGATATGGACACGGTGGCTTAGT | 9 | – | –
DNA aptamer 8 (ssDNA) DNA: ATCCAGAGTGACGCAGCATTTCATCGGGTCCAAAAGGGGCTGCTCGGGATTGCGGATATGGACACGT | 8.9 | – | –
DNA aptamer 6 (ssDNA) DNA: ATCCAGAGTGACGCAGCAGTAGGGGGATTGGCTCCAGGGCCTGGCTGACGGTTGCACGTGGACACGGTGGCTTAGT | 7.8 | – | –
